Test results: patent US6756229B1, “Human cell line showing stable expression of cytochromes P450” (Takeda Chemical Industries, Ltd., priority 1999, dated 2004)

Assays:
[1] = substrate: O=[N+]([O-])c1ccc(O)cc1; assay: Kinetic analysis, p-nitrophenol hydroxylase activity in Hepc/2E1.3-8; assay type: cell-based, human; settings: other: Hepc/2E1.3-8, Lineweaver-Burk plot, 37.0 °C
Source text: 4-Nitrocatechol purchased from Wako Junyaku K. K. was used as the standard substance.

[2] = substrate: CCOc1ccc2nc3ccc(=O)cc-3oc2c1; assay: Kinetic analysis, 7-ethoxyresorufin O-deethylase activity in Hepc/1A2.9; assay type: cell-based, human; settings: other: Hepc/1A2.9, Lineweaver-Burk plot, 37.0 °C
Experimental: (§1) After 1800 μl of methanol (Wako Junyaku K. K) was added to 300 μl of the reaction solution and insoluble material was removed by centrifugation, fluorescent intensity was measured at an excited wavelength of 550 nm and a fluorescence wavelength of 586 nm using a spectrofluorometer to quantify the resorufin formed. The product purchased from Molecular Probes was used as the standard substance for resorufin (Molecular Probes).

[3] = substrate: CCOc1ccc2nc3ccc(=O)cc-3oc2c1; assay: Kinetic analysis, 7-ethoxyresorufin O-deethylase activity in Hepc/1A1.4; assay type: cell-based, human; settings: other: Hepc/1A1.4, Lineweaver-Burk plot, 37.0 °C
Experimental: as §1

[4] = substrate: CC(=O)O[C@H]1C(=O)[C@@]2(C)[C@H]([C@H](OC(=O)c3ccccc3)[C@]3(O)C[C@H](OC(=O)[C@H](O)[C@@H](NC(=O)c4ccccc4)c4ccccc4)C(C)=C1C3(C)C)[C@]1(OC(C)=O)CO[C@@H]1C[C@@H]2O

B1: CYP2E1 (Homo sapiens) (protein)
chain: MSALGVTVALLVWAAFLLLVSMWRQVHSSWNLPPGPFPLPIIGNLFQLELKNIPKSFTRLAQRFGPVFTLYVGSQRMVVMHGYKAVKEALLDYKDEFSGRGDLPAFHAHRDRGIIFNNGPTWKDIRRFSLTTLRNYGMGKQGNESRIQREAHFLLEALRKTQGQPFDPTFLIGCAPCNVIADILFRKHFDYNDEKFLRLMYLFNENFHLLSTPWLQLYNNFPSFLHYLPGSHRKVIKNVAEVKEYVSERVKEHHQSLDPNCPRDLTDCLLVEMEKEKHSAERLYTMDGITVTVADLFFAGTETTSTTLRYGLLILMKYPEIEEKLHEEIDRVIGPSRIPAIKDRQEMPYMDAVVHEIQRFITLVPSNLPHEATRDTIFRGYLIPKGTVVVPTLDSVLYDNQEFPDPEKFKPEHFLNENGKFKYSDYFKPFSTGKRVCAGEGLARMELFLLLCAILQHFNLKPLVDPKDIDLSPIHIGFGCIPPRYKLCVIPRS
notes: expressed in transfected cells
[1]
  Km: 88 µM
  Vmax: 0.00012 µmol/min/mg

B2: CYP1A2 (Homo sapiens) (protein)
chain: MALSQSVPFSATELLLASAIFCLVFWVLKGLRPRVPKGLKSPPEPWGWPLLGHVLTLGKNPHLALSRMSQRYGDVLQIRIGSTPVLVLSRLDTIRQALVRQGDDFKGRPDLYTSTLITDGQSLTFSTDSGPVWAARRRLAQNALNTFSIASDPASSSSCYLEEHVSKEAKALISRLQELMAGPGHFDPYNQVVVSVANVIGAMCFGQHFPESSDEMLSLVKNTHEFVETASSGNPLDFFPILRYLPNPALQRFKAFNQRFLWFLQKTVQEHYQDFDKNSVRDITGALFKHSKKGPRASGNLIPQEKIVNLVNDIFGAGFDTVTTAISWSLMYLVTKPEIQRKIQKELDTVIGRERRPRLSDRPQLPYLEAFILETFRHSSFLPFTIPHSTTRDTTLNGFYIPKKCCVFVNQWQVNHDPELWEDPSEFRPERFLTADGTAINKPLSEKMMLFGMGKRRCIGEVLAKWEIFLFLAILLQQLEFSVPPGVKVDLTPIYGLTMKHARCEHVQARLRFSIN
notes: as for B1
[2]
  Km: 0.72 µM
  Vmax: 1.6e-06 µmol/min/mg

B3: CYP1A1 (Homo sapiens) (protein)
chain: MLFPISMSATEFLLASVIFCLVFWVIRASRPQVPKGLKNPPGPWGWPLIGHMLTLGKNPHLALSRMSQQYGDVLQIRIGSTPVVVLSGLDTIRQALVRQGDDFKGRPDLYTFTLISNGQSMSFSPDSGPVWAARRRLAQNGLKSFSIASDPASSTSCYLEEHVSKEAEVLISTLQELMAGPGHFNPYRYVVVSVTNVICAICFGRRYDHNHQELLSLVNLNNNFGEVVGSGNPADFIPILRYLPNPSLNAFKDLNEKFYSFMQKMVKEHYKTFEKGHIRDITDSLIEHCQEKQLDENANVQLSDEKIINIVLDLFGAGFDTVTTAISWSLMYLVMNPRVQRKIQEELDTVIGRSRRPRLSDRSHLPYMEAFILETFRHSSFVPFTIPHSTTRDTSLKGFYIPKGRCVFVNQWQINHDQKLWVNPSEFLPERFLTPDGAIDKVLSEKVIIFGMGKRKCIGETIARWEVFLFLAILLQRVEFSVPLGVKVDMTPIYGLTMKHACCEHFQMQLRS
notes: as for B1
[3]
  Km: 0.25 µM
  Vmax: 5.6e-05 µmol/min/mg

B4: CYP2C8 (Homo sapiens) (protein)
chain: MEPFVVLVLCLSFMLLFSLWRQSCRRRKLPPGPTPLPIIGNMLQIDVKDICKSFTNFSKVYGPVFTVYFGMNPIVVFHGYEAVKEALIDNGEEFSGRGNSPISQRITKGLGIISSNGKRWKEIRRFSLTTLRNFGMGKRSIEDRVQEEAHCLVEELRKTKASPCDPTFILGCAPCNVICSVVFQKRFDYKDQNFLTLMKRFNENFRILNSPWIQVCNNFPLLIDCFPGTHNKVLKNVALTRSYIREKVKEHQASLDVNNPRDFIDCFLIKMEQEKDNQKSEFNIENLVGTVADLFVAGTETTSTTLRYGLLLLLKHPEVTAKVQEEIDHVIGRHRSPCMQDRSHMPYTDAVVHEIQRYSDLVPTGVPHAVTTDTKFRNYLIPKGTTIMALLTSVLHDDKEFPNPNIFDPGHFLDKNGNFKKSDYFMPFSAGKRICAGEGLARMELFLFLTTILQNFNLKSVDDLKNLNTTAVTKGIVSLPPSYQICFIPV
[4]
  Km: 7.4 µM
  Vmax: 9e-09 µmol/min/mg
